From patent US20260242478A1 (published 2026)
Where no end group is shown, it is not given here.

These binders were tested against Anti-CD28 Fab (SEQ ID NOs: 696, 697) (assay: phage binding ELISA; Fab-coated wells pre-incubated with CD28 antigen as competitor, anti-M13 HRP detection;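 further: crude clonal phage supernatants added without washing after the CD28 pre-incubation, with wells given blocking buffer only (no CD28) as the reference, bound phage read after washing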).
Target sequence in this assay (VH, as listed by the source, chain 1 of 2): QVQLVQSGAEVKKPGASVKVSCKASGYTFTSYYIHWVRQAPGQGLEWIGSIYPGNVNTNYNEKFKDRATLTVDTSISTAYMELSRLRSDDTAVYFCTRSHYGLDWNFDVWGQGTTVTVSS
Target sequence in this assay (VL, as listed by the source, chain 2 of 2): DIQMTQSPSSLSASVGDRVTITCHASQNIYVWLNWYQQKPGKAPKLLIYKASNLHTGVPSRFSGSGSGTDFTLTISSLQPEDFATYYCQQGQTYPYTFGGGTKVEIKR
Experimental: (§1) Clonal phage were harvested as crude supematants and screened via standard ELISAs. […] Prior to the addition of clonal phage, wells were incubated with blocking buffer and CD28 antigen or blocking buffer alone. Without washing or aspirating, clonal phage supematants were then added to the wells and incubated for a short time. Wells were then washed followed by detection of bound phage using a horse radish conjugated anti-M13 antibody. Clonal phage of interest were then sent for sequence analysis.

Binder | Anti-CD28 Fab signal in the presence of CD28
TCAAGAHYTWPECF [Phage-1419] | 0.07
LCAEFFNYPWPLCL [Phage-1422] | 0.06
QCSAGAAWPWPFCL [Phage-1423] | 0.08
SCAAGATYSWPMCL [Phage-1421] | 0.09
SCAAVFSYSWPMCF [Phage-1420] | 0.06
MCAAGATYPWPLCL (cysteine pairing not given here; also: fused to phage pIII protein) [Phage-1417] | 0.07
TCAAGATYSWPWCF [Phage-1418] | 0.07

Biological target: Anti-CD28 Fab (SEQ ID NOs: 696, 697)
Test: as above
Remark: another data set of the same source
Target sequence in this assay (VH, as listed by the source, chain 1 of 2): as the sequence (VH, as listed by the source, chain 1 of 2) above
Target sequence in this assay (VL, as listed by the source, chain 2 of 2): as the sequence (VL, as listed by the source, chain 2 of 2) above
Experimental: as §1

Binder | Anti-CD28 Fab signal in the presence of CD28
TCAAGAHYSWPACF [Phage-1370 peptide (Peptide-92 library sequence, SEQ ID NO: 1666)] | 0.07
TCSAGASYPWPLCL [Phage-1363 peptide (Peptide-92 library sequence, SEQ ID NO: 1659)] | 0.08
SCKPGVANYWPWCL [Phage-1364 peptide (Peptide-92 library sequence, SEQ ID NO: 1660)] | 0.1
TCSAGATWSWPMCL [Phage-1368 peptide (Peptide-92 library sequence, SEQ ID NO: 1664)] | 0.09
LCSAGAMYPWPTCL [Phage-1369 peptide (Peptide-92 library sequence, SEQ ID NO: 1665)] | 0.07
TCKAGATYLWPFCL [Phage-1373 peptide (Peptide-92 library sequence, SEQ ID NO: 1669)] | 0.08
RCAAGASYPWPPCL [Phage-1372 peptide (Peptide-92 library sequence, SEQ ID NO: 1668)] | 0.05
TCAAGATYPWPSCL [Phage-1371 peptide (Peptide-92 library sequence, SEQ ID NO: 1667)] | 0.06
SCAAGAMWPWPVCV [Phage-1362 peptide (Peptide-92 library sequence, SEQ ID NO: 1658)] | 0.13
MCSAGAMYSWPLCL [Phage-1365 peptide (Peptide-92 library sequence, SEQ ID NO: 1661)] | 0.08
MCAAGANYPWPQCL (cysteine pairing not given here; also: fused to phage pIII protein) [Phage-1367 peptide (Peptide-92 library sequence, SEQ ID NO: 1663)] | 0.08
LCAAGATYPWPFCL [Phage-1366 peptide (Peptide-92 library sequence, SEQ ID NO: 1662)] | 0.07

The binders below were run against Anti-CD28 Fab (SEQ ID NOs: 696, 697) (assay: phage binding ELISA; biotinylated anti-CD28 Fab on neutravidin plate, clonal phage supernatant, anti-M13 HRP detection;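 further: wells pretreated with blocking buffer, either plus or minus CD28 antigen, then given crude phage supernatant briefly without washing in between, then washed before anti-M13 HRP readout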).
Target sequence in this assay (VH, as listed by the source, chain 1 of 2): as the sequence (VH, as listed by the source, chain 1 of 2) above
Target sequence in this assay (VL, as listed by the source, chain 2 of 2): as the sequence (VL, as listed by the source, chain 2 of 2) above
Experimental: (§2) Clonal phage were harvested as crude supematants and screened via standard ELISAs. […] Prior to the addition of clonal phage, wells were incubated with blocking buffer and CD28 antigen or blocking buffer alone. Without washing or aspirating, clonal phage supematants were then added to the wells and incubated for a short time. Wells were then washed followed by detection of bound phage using a horse radish conjugated anti-M13 antibody.

Binder | Anti-CD28 Fab (SEQ ID NOs: 696, 697) signal
TCAAGAHYTWPECF [Phage-1419] | 1.99
LCAEFFNYPWPLCL [Phage-1422] | 1.98
QCSAGAAWPWPFCL [Phage-1423] | 1.97
SCAAGATYSWPMCL [Phage-1421] | 1.99
SCAAVFSYSWPMCF [Phage-1420] | 1.99
MCAAGATYPWPLCL (cysteine pairing not given here; also: fused to phage pIII protein) [Phage-1417] | 1.99
TCAAGATYSWPWCF [Phage-1418] | 1.99

Biological target: Anti-CD28 Fab (SEQ ID NOs: 696, 697)
Test: as above
Remark: another data set of the same source
Target sequence in this assay (VH, as listed by the source, chain 1 of 2): as the sequence (VH, as listed by the source, chain 1 of 2) above
Target sequence in this assay (VL, as listed by the source, chain 2 of 2): as the sequence (VL, as listed by the source, chain 2 of 2) above
Experimental: as §2

Binder | Anti-CD28 Fab (SEQ ID NOs: 696, 697) signal
TCAAGAHYSWPACF [Phage-1370 peptide (Peptide-92 library sequence, SEQ ID NO: 1666)] | 2.25
TCSAGASYPWPLCL [Phage-1363 peptide (Peptide-92 library sequence, SEQ ID NO: 1659)] | 2.29
SCKPGVANYWPWCL [Phage-1364 peptide (Peptide-92 library sequence, SEQ ID NO: 1660)] | 2.29
TCSAGATWSWPMCL [Phage-1368 peptide (Peptide-92 library sequence, SEQ ID NO: 1664)] | 2.26
LCSAGAMYPWPTCL [Phage-1369 peptide (Peptide-92 library sequence, SEQ ID NO: 1665)] | 2.25
TCKAGATYLWPFCL [Phage-1373 peptide (Peptide-92 library sequence, SEQ ID NO: 1669)] | 2.23
RCAAGASYPWPPCL [Phage-1372 peptide (Peptide-92 library sequence, SEQ ID NO: 1668)] | 2.25
TCAAGATYPWPSCL [Phage-1371 peptide (Peptide-92 library sequence, SEQ ID NO: 1667)] | 2.25
SCAAGAMWPWPVCV [Phage-1362 peptide (Peptide-92 library sequence, SEQ ID NO: 1658)] | 2.29
MCSAGAMYSWPLCL [Phage-1365 peptide (Peptide-92 library sequence, SEQ ID NO: 1661)] | 2.29
MCAAGANYPWPQCL (cysteine pairing not given here; also: fused to phage pIII protein) [Phage-1367 peptide (Peptide-92 library sequence, SEQ ID NO: 1663)] | 2.28
LCAAGATYPWPFCL [Phage-1366 peptide (Peptide-92 library sequence, SEQ ID NO: 1662)] | 2.28

Each binder was assayed against T1, Anti-CD28 Fab (SEQ ID NOs: 696, 697) (biotinylated (site not given)) (assay: phage binding ELISA; biotinylated anti-CD28 Fab on neutravidin plate, clonal phage detected with anti-M13-HRP;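 further: crude clonal phage supernatants added briefly to wells preincubated in blocking buffer with or without CD28 antigen, then washed before detection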).
T1 sequence (VH, as listed by the source, chain 1 of 2): as the sequence (VH, as listed by the source, chain 1 of 2) above
T1 sequence (VL, as listed by the source, chain 2 of 2): as the sequence (VL, as listed by the source, chain 2 of 2) above

Binder | Anti-CD28 Fab (SEQ ID NOs: 696, 697) signal
TCSAGAYYTWPYCF [Phage-1395] | 2.09
TCAAGAMYTWPLCF [Phage-1390] | 2.14
WCKPGAPYKWPPCF [Phage-1389] | 2.14
TCAAGATYAWPECL [Phage-1400] | 2.08
TCAAGAHYLWPWCM [Phage-1402] | 2.05
LCAAGATYAWPLCL [Phage-1392] | 2.13
YCAAGATYPWPLCL [Phage-1399] | 2.08
TCSAGATWTWPQCL [Phage-1391] | 2.14
TCAAGATYEWPACL [Phage-1394] | 2.09
TCAAVFSYGWPECF [Phage-1396] | 2.09
QCAAGASYPWPMCL [Phage-1398] | 2.08
SCSAGAMYTWPTCL [Phage-1397] | 2.09
TCSEGATYTWPWCF [Phage-1401] | 2.05
MCAEFFNYPWPLCL (cysteine pairing not given here; also: fused to phage pIII protein) [Phage-1393] | 2.11

These binders were tested against T2, Anti-CD28 Fab (SEQ ID NOs: 696, 697) (assay: phage binding ELISA; clonal phage on plate-captured biotinylated anti-CD28 Fab).
T2 construct: In the phage ELISA the Fab was biotinylated and captured on neutravidin coated plates
T2 sequence (VH, as listed by the source, chain 1 of 2): as the sequence (VH, as listed by the source, chain 1 of 2) above
T2 sequence (VL, as listed by the source, chain 2 of 2): as the sequence (VL, as listed by the source, chain 2 of 2) above
Experimental: as §2

Binder | Anti-CD28 Fab (SEQ ID NOs: 696, 697) signal
LCAAGASYPWPTCL [Phage-1414 (Peptide-92 library clone)] | 2
LCAAGFKYPWPLCL [Phage-1411 (Peptide-92 library clone)] | 2.02
TCSAGFHYEWPRCL [Phage-1410 (Peptide-92 library clone)] | 2.02
GCAAGATYPWPSCL [Phage-1404 (Peptide-92 library clone)] | 2.05
TCSAGATYVWPQCF [Phage-1403 (Peptide-92 library clone)] | 2.05
TCAAGANYPWPYCL [Phage-1416 (Peptide-92 library clone)] | 1.99
TCSAGASWAWPWCF [Phage-1408 (Peptide-92 library clone)] | 2.03
HCAAGAHYPWPACL [Phage-1415 (Peptide-92 library clone)] | 2
TCAAGATYKWPACL [Phage-1405 (Peptide-92 library clone)] | 2.05
TCAAGASYAWPWCL [Phage-1407 (Peptide-92 library clone)] | 2.03
MCSAGAMYPWPTCL [Phage-1406 (Peptide-92 library clone)] | 2.04
LCEEFADYPWPMCL [Phage-1412 (Peptide-92 library clone)] | 2.01
TCAAGATYSWPMCF [Phage-1413 (Peptide-92 library clone)] | 2
TCAAGAMWHWPVCL [Phage-1409 (Peptide-92 library clone)] | 2.03

What follows are binders tested against T2, Anti-CD28 Fab (SEQ ID NOs: 696, 697) (assay: phage binding ELISA; clonal phage on plate-captured anti-CD28 Fab pre-incubated with CD28 antigen (competitor)).
Experimental: as §1

Binder | Anti-CD28 Fab signal in the presence of CD28
LCAAGASYPWPTCL [Phage-1414 (Peptide-92 library clone)] | 0.1
LCAAGFKYPWPLCL [Phage-1411 (Peptide-92 library clone)] | 0.07
TCSAGFHYEWPRCL [Phage-1410 (Peptide-92 library clone)] | 0.05
GCAAGATYPWPSCL [Phage-1404 (Peptide-92 library clone)] | 0.06
TCSAGATYVWPQCF [Phage-1403 (Peptide-92 library clone)] | 0.07
TCAAGANYPWPYCL [Phage-1416 (Peptide-92 library clone)] | 0.14
TCSAGASWAWPWCF [Phage-1408 (Peptide-92 library clone)] | 0.08
HCAAGAHYPWPACL [Phage-1415 (Peptide-92 library clone)] | 0.12
TCAAGATYKWPACL [Phage-1405 (Peptide-92 library clone)] | 0.09
TCAAGASYAWPWCL [Phage-1407 (Peptide-92 library clone)] | 0.08
MCSAGAMYPWPTCL [Phage-1406 (Peptide-92 library clone)] | 0.08
LCEEFADYPWPMCL [Phage-1412 (Peptide-92 library clone)] | 0.06
TCAAGATYSWPMCF [Phage-1413 (Peptide-92 library clone)] | 0.07
TCAAGAMWHWPVCL [Phage-1409 (Peptide-92 library clone)] | 0.09

What follows are binders tested against T1, Anti-CD28 Fab (SEQ ID NOs: 696, 697) (assay: phage binding ELISA on captured anti-CD28 Fab; competitor: CD28 antigen added to the wells before the phage).
Experimental: as §2

Binder | Anti-CD28 Fab signal in the presence of CD28
TCSAGAYYTWPYCF [Phage-1395] | 0.08
TCAAGAMYTWPLCF [Phage-1390] | 0.09
WCKPGAPYKWPPCF [Phage-1389] | 0.07
TCAAGATYAWPECL [Phage-1400] | 0.11
TCAAGAHYLWPWCM [Phage-1402] | 0.08
LCAAGATYAWPLCL [Phage-1392] | 0.07
YCAAGATYPWPLCL [Phage-1399] | 0.08
TCSAGATWTWPQCL [Phage-1391] | 0.08
TCAAGATYEWPACL [Phage-1394] | 0.07
TCAAVFSYGWPECF [Phage-1396] | 0.07
QCAAGASYPWPMCL [Phage-1398] | 0.08
SCSAGAMYTWPTCL [Phage-1397] | 0.06
TCSEGATYTWPWCF [Phage-1401] | 0.06
MCAEFFNYPWPLCL (cysteine pairing not given here; also: fused to phage pIII protein) [Phage-1393] | 0.07
